Data set [1] addresses GIRK4 homo-tetramers, purified and reconstituted into proteoliposomes and planar lipid bilayers (human) (UniProt P48544).
In data set [2] the target is GIRK1/4 hetero-tetramers, purified and reconstituted into proteoliposomes and planar lipid bilayers (human) (UniProt P48549).
Data set [3] addresses GIRK1(N217D)/4 hetero-tetramers, purified and reconstituted into proteoliposomes and planar lipid bilayers (human) (UniProt P48549). The note with it: scale: not given.
In data set [4] the target is GIRK4 homo-tetramers, purified and reconstituted into proteoliposomes and planar lipid bilayers (human) (UniProt P48544). The source holds these as a separate data set.
Data set [5] concerns the molecule itself. The experiment in a line: SEC; fluorescent size-exclusion chromatography (FSEC) of solubilized HEK293T cell lysate, Superose 6 10/300 GL; 50 mM HEPES-KOH pH 7.35, 150 mM KCl, 4% DM for solubilization; GFP fluorescence followed. On the technique in general: In gel filtration, larger molecules generally elute earlier.
The target in data set [6] is T1, GIRK1-His (human full-length GIRK1 with C-terminal PreScission site, eGFP and deca-histidine tag) (human, UniProt P48549 1-501).
T1 construct: G protein gated inward rectifier K+ channel subunit GIRK1, human, full length; also called His-tagged GIRK1; GIRK1 subunit; source: HEK293S GnTI- cells, BacMam transduced together with GIRK4-1D4 (1:1), solubilized in DM; not shown: eGFP, C-terminal, kept; His10, C-terminal, kept
T1 sequence (looked up): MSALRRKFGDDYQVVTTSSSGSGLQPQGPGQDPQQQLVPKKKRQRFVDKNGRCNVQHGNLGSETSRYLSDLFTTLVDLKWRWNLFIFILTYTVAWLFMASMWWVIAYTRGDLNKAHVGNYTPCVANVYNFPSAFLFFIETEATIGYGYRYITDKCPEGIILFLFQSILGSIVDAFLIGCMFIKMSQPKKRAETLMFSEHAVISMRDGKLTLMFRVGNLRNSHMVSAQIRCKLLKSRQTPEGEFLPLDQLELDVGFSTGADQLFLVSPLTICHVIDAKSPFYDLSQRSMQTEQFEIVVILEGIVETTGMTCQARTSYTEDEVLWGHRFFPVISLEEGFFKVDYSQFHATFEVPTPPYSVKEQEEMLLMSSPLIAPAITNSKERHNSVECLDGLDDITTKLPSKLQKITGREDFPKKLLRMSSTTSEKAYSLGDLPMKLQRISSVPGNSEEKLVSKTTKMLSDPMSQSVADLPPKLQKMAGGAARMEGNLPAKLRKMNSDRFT
The experiment in a line: SEC; purified GIRK1/4 after PreScission cleavage of eGFP and tags, Superose 6 10/300 GL in 20 mM Tris-HCl pH 7.5, 150 mM KCl, 0.2% DM, 20 mM DTT, 1 mM EDTA; fractions of the peak run on 12% SDS-PAGE, band intensities compared. The following applies: both partners purified.

As for “soluble Gβγ with a deca-histidine-tag instead of its physiological lipid anchor (sGβγ-His10) (from UniProt P62873 1-340; P59768 1-71) (complex)”, the b, cooperativity factor for Gβγ binding, from the fit of the equilibrium gating model to normalized planar lipid bilayer currents in data set [1] and in data set [2] was 0.6 in each case. The molecule further registered a Kdb from a fit of the 25-state equilibrium gating model to normalized planar lipid bilayer currents against Ni-NTA-lipid mole fraction (membrane sGβγ-His10 density) at 0, 8 and 32 mM Na+ in data set [1] (scale: not given) of 0.004. Further, the Kdb from a fit of the equilibrium gating model (two Na+ sites permanently occupied) to normalized planar lipid bilayer currents against Ni-NTA-lipid mole fraction at 0, 8 and 32 mM Na+ in data set [2] (scale: not given) was found to be 0.004. For the same molecule, the Kdb from a fit of the equilibrium gating model (b and θ4,4 fixed) to normalized planar lipid bilayer currents against Ni-NTA-lipid mole fraction at 0, 8 and 32 mM Na+ in data set [3] was 0.0024. Also, the normalized GIRK4 current in planar lipid bilayers at 0.001 Ni-NTA mole fraction, 0 to 32 mM Na+ (normalized current) in data set [4] amounted to 0.34.

B1: GIRK4 subunit fused to GFP (GIRK4-1D4-pEG BacMam construct) (natural protein, human, UniProt P48544 1-419, looked up)
chain: MAGDSRNAMNQDMEIGVTPWDPKKIPKQARDYVPIATDRTRLLAEGKKPRQRYMEKSGKCNVHHGNVQETYRYLSDLFTTLVDLKWRFNLLVFTMVYTVTWLFFGFIWWLIAYIRGDLDHVGDQEWIPCVENLSGFVSAFLFSIETETTIGYGFRVITEKCPEGIILLLVQAILGSIVNAFMVGCMFVKISQPKKRAETLMFSNNAVISMRDEKLCLMFRVGDLRNSHIVEASIRAKLIKSRQTKEGEFIPLNQTDINVGFDTGDDRLFLVSPLIISHEINQKSPFWEMSQAQLHQEEFEVVVILEGMVEATGMTCQARSSYMDTEVLWGHRFTPVLTLEKGFYEVDYNTFHDTYETNTPSCCAKELAEMKREGRLLQYLPSPPLLGGCAEAGLDAEAEQNEEDEPKGLGGSREARGSV
notes: G protein gated inward rectifier K+ channel subunit GIRK4, human, full length; A PreScission protease cleavage site stands between GIRK4 and eGFP-1D4; not cut for FSEC; also called GIRK4 homo-tetramers; source: HEK293T, transiently transfected, in solubilized cell lysate (4% DM); not shown: eGFP, C-terminal, kept; 1D4 peptide, C-terminal, kept
One may read the stoichiometry N as a count of units in the complex or per binding partner. In the case of B1, the “stoichiometry N” value in data set [5] worked out at 4 subunits.

B2: GIRK4-1D4 (human full-length GIRK4 with C-terminal PreScission site, eGFP and 1D4 peptide tag) (natural protein, UniProt P48544 1-419, looked up)
chain: MAGDSRNAMNQDMEIGVTPWDPKKIPKQARDYVPIATDRTRLLAEGKKPRQRYMEKSGKCNVHHGNVQETYRYLSDLFTTLVDLKWRFNLLVFTMVYTVTWLFFGFIWWLIAYIRGDLDHVGDQEWIPCVENLSGFVSAFLFSIETETTIGYGFRVITEKCPEGIILLLVQAILGSIVNAFMVGCMFVKISQPKKRAETLMFSNNAVISMRDEKLCLMFRVGDLRNSHIVEASIRAKLIKSRQTKEGEFIPLNQTDINVGFDTGDDRLFLVSPLIISHEINQKSPFWEMSQAQLHQEEFEVVVILEGMVEATGMTCQARSSYMDTEVLWGHRFTPVLTLEKGFYEVDYNTFHDTYETNTPSCCAKELAEMKREGRLLQYLPSPPLLGGCAEAGLDAEAEQNEEDEPKGLGGSREARGSV
notes: G protein gated inward rectifier K+ channel subunit GIRK4, human, full length; also called 1D4-tagged GIRK4; GIRK4 subunit; source: HEK293S GnTI- cells, BacMam transduced together with GIRK1-His (1:1), solubilized in DM; not shown: eGFP, C-terminal, kept; 1D4 peptide, C-terminal, kept
For B2, the “stoichiometry N” value in data set [6] is 1 GIRK4 per GIRK1 (2:2 in the tetramer).

B3: GIRK1 subunit fused to GFP (GIRK1-His10-pEG BacMam construct) (natural protein, human, UniProt P48549 1-501, looked up)
chain: MSALRRKFGDDYQVVTTSSSGSGLQPQGPGQDPQQQLVPKKKRQRFVDKNGRCNVQHGNLGSETSRYLSDLFTTLVDLKWRWNLFIFILTYTVAWLFMASMWWVIAYTRGDLNKAHVGNYTPCVANVYNFPSAFLFFIETEATIGYGYRYITDKCPEGIILFLFQSILGSIVDAFLIGCMFIKMSQPKKRAETLMFSEHAVISMRDGKLTLMFRVGNLRNSHMVSAQIRCKLLKSRQTPEGEFLPLDQLELDVGFSTGADQLFLVSPLTICHVIDAKSPFYDLSQRSMQTEQFEIVVILEGIVETTGMTCQARTSYTEDEVLWGHRFFPVISLEEGFFKVDYSQFHATFEVPTPPYSVKEQEEMLLMSSPLIAPAITNSKERHNSVECLDGLDDITTKLPSKLQKITGREDFPKKLLRMSSTTSEKAYSLGDLPMKLQRISSVPGNSEEKLVSKTTKMLSDPMSQSVADLPPKLQKMAGGAARMEGNLPAKLRKMNSDRFT
notes: G protein gated inward rectifier K+ channel subunit GIRK1, human, full length; A PreScission protease cleavage site stands between GIRK1 and eGFP-His10; not cut for FSEC; also called GIRK1 homo-tetramers; source: HEK293T, transiently transfected, in solubilized cell lysate (4% DM); not shown: eGFP, C-terminal, kept; His10, C-terminal, kept
For the molecule B3, the “stoichiometry N” value in data set [5] came out at 4 subunits.

The values above are taken from paper PMC4866825, “The GIRK1 subunit potentiates G protein activation of cardiac GIRK1/4 hetero-tetramers” (eLife, 2016).
